Test results as given in patent publication US20260125465A1 (BROAD INSTITUTE, published 2026).

B1: Ab_119706 VHH antibody, 6×His tagged, purified (VHH)
VHH: QLQLVESGGGLVQPGGSLRLSCAASGFTLDYYAIGWFRQAPGKEREGVSYISSSGGSTNYADSVKGRFTISRDNAKNTVYLQMNSLKPEDTGVYSCAAAGGYGNSSRYWGQGTSVTVSH
notes: Produced by Genscript in a mammalian cell line and purified
B2: Ab_113415 VHH antibody, 6×His tagged, purified (VHH)
VHH: QVQLVESGGGLVQPGGSLRLSCAASGSMFSINAVAWYRQAPGEQREPVAAMTSGGSTIYADSVKGRFTISRDNAKNTVYLQMSSLKPEDTAVYYCNGGWSLAMDYWGQGTSVTVSH
notes: Produced by Genscript in a mammalian cell line and purified; The tag is written after the VHH only by convention
B3: Ab_119704 VHH antibody, 6×His tagged, purified (VHH)
VHH: QLQLVESGGGLVQPGGSLRLSCAASGFTLDNYAIGWFRQAPGKEREGVSSISSSGGSTNYADSVKGRFTVSRDNAKHTVYLQMNSLKPEDTAVYYCAGVGDYGRRAMGQGTSVTVSH
notes: as for B1
B4: Ab_119707 VHH antibody, 6×His tagged, purified (VHH)
VHH: EVQLVESGGGSVQAGETLRLSCTASGFTFDDSDMGWYRQAPGDECELVSTISSDGSTNYADSVKGRFTISQDNAKNTVYLQMTSLKPEDTAIYSCRTMASRIGCWGQGTLVTVSH
notes: as for B1
B5: Ab_119702 VHH antibody, 6×His tagged, purified (VHH)
VHH: DVQLVESGGGLVQAGGSLRLSCAASGFPYFSCCMSWHRQAPGKDRELVSSISSDGSTHYADSVRGRFTISKGNARNTLYLQMNSLKPEDTAVYFCAASPRQLGPYYAMDYWGQGTSVTVSH
notes: as for B1

target: T1, soluble MSLN (Glu2-6-Gly580, Acro Bio Systems, MSN-H82E9-25 ug) (UniProt Q13421 296-580); assay: biolayer interferometry (BLI) with soluble MSLN
T1 construct: range 296-580; Detected with an anti-His secondary antibody in the CAR-T staining, so it carries a His tag; also called soluble mesothelin
T1 sequence (Q13421 other isoform, or with tags, fused parts or gaps limits assumed): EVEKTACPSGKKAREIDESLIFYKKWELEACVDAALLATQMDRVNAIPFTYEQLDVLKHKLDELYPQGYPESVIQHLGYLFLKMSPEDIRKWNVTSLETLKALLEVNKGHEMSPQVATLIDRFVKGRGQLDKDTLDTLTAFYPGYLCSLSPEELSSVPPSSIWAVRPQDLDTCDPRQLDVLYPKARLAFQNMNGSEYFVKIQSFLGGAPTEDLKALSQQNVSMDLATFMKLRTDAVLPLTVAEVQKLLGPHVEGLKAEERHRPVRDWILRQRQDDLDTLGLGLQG
Experimental: Experiments were undertaken to characterize the ability of the anti-MSLN VHH antibodies to bind MSLN. 6×His tagged (SEQ ID NO: 93) VHH antibodies were produced by Genscript in a mammalian cell line and purified. The purified VHH antibodies were tested using a flow cytometry-based assay to see how well they bound mesothelin expressed on cells (FIG. 9A). […] Also, biolayer interferometry (BLI) was used to accurately assess the binding affinity (Kd) of the anti-MSLN VHH antibodies (Table 5). BLI was conducted with soluble MSLN (Glu2-6-Gly580, Acro Bio Systems, MSN-H82E9-25 ug). […] After exposure to the media containing the soluble MSLN, an anti-His secondary antibody was used to detect CAR-T cells binding the MSLN. T cells expressing CARs containing the anti-MSLN VHH antibodies or SS1 as antigen binding domains bound the soluble MSLN.

Binder	Kd [nM]
B1	11.5
B2	3.69
B3	4.49
B4	5.95
B5	5.32
